Laboratory results as given in patent publication US20030139571A1.
pIC50: −log10 of the molar value. Values joined by “and” are separate entries in the source; they are usually repeats but may differ in a detail not shown here. Identical values can stand only once.

Columns and labels:
gp120JR-FL (HIV-1 JR-FL) = gp120JR-FL (HIV-1 JR-FL) (UniProt P20871); experiment: cell-based or functional assay
[1] = molecular target: gp120DH123/CD4-IgG2 complex (HIV-1 DH123); experiment: SPR, complex 50 nM over immobilised sulfopeptide 2-18 with MAb (150 mM [sic])
[2] = molecular target: gp120JR-FL/CD4-IgG2 complex (HIV-1 JR-FL)
[3] = molecular target: biotinylated CCR5 Nt sulfopeptide 2-18; experiment: direct ELISA, biotinylated peptide on streptavidin plate, complex titrated (CD4-IgG2 concentration), anti-human IgG-HRP
[4] = molecular target: biotinylated CCR5 Nt sulfopeptide 2-18; experiment: peptide ELISA, gp120/CD4-IgG2 complexes
[5] = molecular target: biotinylated CCR5 Nt sulfopeptide 2-18
[6] = molecular target: CCR5 on L1.2-CCR5+ cells (Homo sapiens (Human)) (UniProt P51681)
[7] = molecular target: CCR5 on L1.2-CCR5+ cells (Homo sapiens (Human)) (UniProt P51681); remark: listed apart in the source
[8] = molecular target: biotinylated CCR5 Nt sulfopeptide 8-15; experiment: ELISA, biotinylated peptide on streptavidin plate, anti-human IgG-HRP
[9] = molecular target: biotinylated CCR5 Nt sulfopeptide 10-15; experiment: as above
[10] = molecular target: biotinylated CCR5 Nt sulfopeptide 6-16; experiment: as above
[11] = molecular target: biotinylated CCR5 Nt sulfopeptide 10-18; experiment: as above

CCR5 Nt peptide S-3/10/14
inhibition of entry of Nlluc+env- particles pseudotyped with HIV-1JR-FL envelope (luciferase; HeLa-CD4+CCR5+ and U87MG-CD4+CCR5+ cells; peptide 100 µM) (gp120JR-FL (HIV-1 JR-FL)): 50%

CCR5 Nt peptide S-10/14
inhibition of entry of Nlluc+env- particles pseudotyped with HIV-1JR-FL envelope (luciferase; HeLa-CD4+CCR5+ and U87MG-CD4+CCR5+ cells; peptide 100 µM) (gp120JR-FL (HIV-1 JR-FL)): 50%

anti-V3 loop MAb 19b (antibody)
% inhibition of complex binding to sulfopeptide 2-18 [1]: 80%
% inhibition of complex binding to sulfopeptide 2-18 [2]: > 90%

anti-gp120 MAb 17b (antibody)
% inhibition of complex binding to sulfopeptide 2-18 [1]: > 90%
% inhibition of complex binding to sulfopeptide 2-18 [2]: > 90%

anti-gp120 MAb 48d (antibody)
% inhibition of complex binding to sulfopeptide 2-18 [1]: > 90%
% inhibition of complex binding to sulfopeptide 2-18 [2]: > 90%

gp120DH123/CD4-IgG2 complex
pIC50 [3]: 8.30
fold less binding than gp120JR-FL [4]: 5 fold

gp120JR-FL D324A/CD4-IgG2 complex
fold decrease in binding vs wild-type gp120JR-FL [5]: > 10 fold

gp120JR-FL F315A/CD4-IgG2 complex
fold decrease in binding vs wild-type gp120JR-FL [6]: 5 fold and 10 fold

gp120JR-FL G310A/CD4-IgG2 complex
fold decrease in binding vs wild-type gp120JR-FL [6]: 10 fold and 5 fold

gp120JR-FL I322A/CD4-IgG2 complex
fold decrease in binding vs wild-type gp120JR-FL [5]: > 10 fold

gp120JR-FL I325A/CD4-IgG2 complex
fold decrease in binding vs wild-type gp120JR-FL [5]: > 10 fold

gp120JR-FL I420A/CD4-IgG2 complex
fold decrease in binding vs wild-type gp120JR-FL [5]: 5 fold and 10 fold

gp120JR-FL K421A/CD4-IgG2 complex
fold decrease in binding vs wild-type gp120JR-FL [5]: 5 fold and 10 fold

gp120JR-FL N301A/CD4-IgG2 complex
fold decrease in binding vs wild-type gp120JR-FL [5]: > 10 fold

gp120JR-FL P311A/CD4-IgG2 complex
fold decrease in binding vs wild-type gp120JR-FL [6]: 5 fold and 10 fold

gp120JR-FL Q422A/CD4-IgG2 complex
fold decrease in binding vs wild-type gp120JR-FL [5]: 5 fold and 10 fold

gp120JR-FL R298A/CD4-IgG2 complex
fold decrease in binding vs wild-type gp120JR-FL [5]: > 10 fold

gp120JR-FL R313A/CD4-IgG2 complex
fold decrease in binding vs wild-type gp120JR-FL [6]: 5 fold and 10 fold

gp120JR-FL R326A/CD4-IgG2 complex
fold decrease in binding vs wild-type gp120JR-FL [5]: > 10 fold

gp120JR-FL R419A/CD4-IgG2 complex
fold decrease in binding vs wild-type gp120JR-FL [5]: 5 fold and 10 fold

gp120JR-FL R440A (from UniProt P20871 32-503)
fold lower avidity than wild type (CD4-IgG2): 5 fold and 10 fold

gp120JR-FL R444A/CD4-IgG2 complex
fold decrease in binding vs wild-type gp120JR-FL [5]: 5 fold and 10 fold

gp120JR-FL R469A (from UniProt P20871 32-503)
fold lower avidity than wild type (CD4-IgG2): 5 fold and 10 fold

gp120JR-FL S306A/CD4-IgG2 complex
fold decrease in binding vs wild-type gp120JR-FL [6]: 5 fold and 10 fold

gp120JR-FL T303A/CD4-IgG2 complex
fold decrease in binding vs wild-type gp120JR-FL [5]: > 10 fold

gp120JR-FL W427A (from UniProt P20871 32-503)
fold lower avidity than wild type (CD4-IgG2): 5 fold and 10 fold

gp120JR-FL Y316A/CD4-IgG2 complex
fold decrease in binding vs wild-type gp120JR-FL [6]: 5 fold and 10 fold

gp120JR-FL/CD4-IgG2 complex
m.f.i. [7]: 40 m.f.i.
pIC50 [3]: 9.00
fold less avid than for sulfopeptide 2-18 [8]: > 10 fold
fold less avid than for sulfopeptide 2-18 [9]: > 10 fold
fold less avid than for sulfopeptide 2-18 [10]: > 10 fold
fold lower avidity than for sulfopeptide 2-18 [11]: 3 fold
